Results from paper PMC7117775, “CsIVP functions in vasculature development and downy mildew resistance in cucumber”.

T1: CsIVP (Irregular Vasculature Patterning, bHLH) (Cucumis sativus, UniProt A0A0A0KHS6 1-223)
T1 sequence: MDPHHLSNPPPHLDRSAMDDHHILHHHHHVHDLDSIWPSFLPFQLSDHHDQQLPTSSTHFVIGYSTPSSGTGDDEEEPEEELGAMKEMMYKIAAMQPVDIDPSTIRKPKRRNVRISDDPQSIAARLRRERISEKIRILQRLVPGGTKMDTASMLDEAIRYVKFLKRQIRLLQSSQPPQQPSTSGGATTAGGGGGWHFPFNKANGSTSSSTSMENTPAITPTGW

B1: CsBP promoter probe (-333) (dsDNA)
DNA 1: ACTTTAATGGCGCACCCTCAACTGAGATATCTATACCC
DNA 2: GGGTATAGATATCTCAGTTGAGGGTGCGCCATTAAAGT
B2: CsAUX4 promoter probe (-1492) (dsDNA)
DNA 1: AGGGATGGAGGTGAGCACATGGGAGGGCCGCTGCC
DNA 2: GGCAGCGGCCCTCCCATGTGCTCACCTCCATCCCT
B3: CsYAB5 promoter probe (-1626) (dsDNA)
DNA 1: TATAAAATTGTTTTAACCAATTGAGTTATATACATTCAA
DNA 2: TTGAATGTATATAACTCAATTGGTTAAAACAATTTTATA
B4: CsCCR1 promoter probe (-1939) (dsDNA)
DNA 1: CAAAATTGACTTCTTCCACTTGTGCAGTCAAACAGTTC
DNA 2: GAACTGTTTGACTGCACAAGTGGAAGAAGTCAATTTTG

Assays:
[1] = biological target: T1, CsIVP (Irregular Vasculature …); assay: EMSA; 80, 120, 160 fmol probe; cold competitor; LightShift Chemiluminescent EMSA Kit (Thermo 20148), manufacturer's instructions; buffer, salt, pH and temperature not stated; conditions: protein: recombinant; tags: pET-28a vector (Ni-NTA purified); chain copies: 2; label: 5' biotin on forward strand; blunt
[2] = biological target: T1, CsIVP (Irregular Vasculature …); assay: EMSA; 80, 120, 160 fmol probe; LightShift Chemiluminescent EMSA Kit (Thermo 20148), manufacturer's instructions; buffer, salt, pH and temperature not stated; conditions: protein: recombinant; tags: pET-28a vector (Ni-NTA purified); chain copies: 2; label: 5' biotin on forward strand; blunt

Row | Binder | binding result [1] | binding result [2]
1 | B1 | binds | –
2 | B2 | binds | –
3 | B3 | binds | –
4 | B4 | – | no binding
